For test [1], the target named is Peptide P3 (BMP9 peptide mimetic designed from the type I receptor binding site) (UniProt Q9UK05 320-429). Kind of test: SPR. On the technique in general: SPR reads the build-up and loss of mass on a sensor chip optically.
Test [2] concerns the target Peptide P3r (randomly shuffled amino acid sequence of peptide P3). Kind of test: SPR.

B1: ALK2-Fc (activin receptor like kinase 2, Fc fusion) (Fc fusion)
chain: MEDEKPKVNPKLYMCVCEGLSCGNEDHCEGQQCFSSLSINDGFHVYQKGCFQVYEQGKMTCKTPPSPGQAVECCQGDWCNRNITAQLPTKGKSFPGTQNFHLE
By Kd is commonly meant the free concentration of one partner at which half of the binding sites on the other are occupied at equilibrium, for simple one-to-one binding. A higher Kd goes with a looser complex. With B1, the Kd in test [1] is 6.7 mM; in test [2] it was 9.42 mM.

B2: ALK3-Fc (activin receptor like kinase 3, Fc fusion) (Fc fusion)
chain: QNLDSMLHGTGMKSDSDQKKSENGVTLAPEDTLPFLKCYCSGHCPDDAINNTCITNGHCFAIIEEDDQGETTLASGCMKYEGSDFQCKDSPKAQLRRTIECCRTNLCNQYLQPTLPPVVIGPFFDGSIR
On to B2, for which the dissociation constant (Kd) in test [1] is 5.8 mM; in test [2], 4.3 mM.

These data come from publication PMC6748948 (2019).
